Laboratory results from US6448377.

Target: β2 adrenoceptor, tagged at the amino-terminus with the FLAG epitope (UniProt P07550)
Test: cell-based or functional assay

GTPγS-sensitive high-affinity agonist binding sites: 30%
basal GTPase activity, tetGsα membranes compared to Gsα membranes: 1.6 fold
isoproterenol-stimulated GTPase activity, tetGsα membranes compared to Gsα membranes: 2.8 fold
Substance: membrane-tethered Gsα (tetGsα) (from UniProt P07550 1-64; P07550 343-412)
